Measured values: patent US20130022605A1 (published 2013)
Positions count from the first letter of the chain named. Values belong to the binder of their own block, whether it stands above or below them.

What was measured:
[1] = molecular target: T1, human TNFR1 (human p55 TNF receptor) (human, UniProt P19438 30-211, limits assumed); experiment: SPR on biotinylated TNFR1, competition with chimeric TNFR1
T1 construct: also called TAR2; human TNF receptor 1
T1 sequence: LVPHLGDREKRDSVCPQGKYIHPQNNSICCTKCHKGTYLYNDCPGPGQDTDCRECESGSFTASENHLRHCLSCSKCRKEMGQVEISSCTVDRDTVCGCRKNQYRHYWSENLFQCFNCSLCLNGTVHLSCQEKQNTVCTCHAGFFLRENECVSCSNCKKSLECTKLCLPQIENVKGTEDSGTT
Method: This example describes a method that was used to determine the domain specificity of dAbs that bind TNFR1. […] If the dAb is pre-incubated and equilibrated with a chimeric molecule that comprises the domain(s) of TNFR1 that the particular dAb binds, then flow of this mixture over the TNFR1 surface will produce a smaller SPR signal relative to the dAb alone.
Once the optimum anti-TNFR1 dAb concentration was determined, anti-TNFR1 dAb/chimeric TNFR1 mixes were set up. Mixes were set up such that the final concentration of anti-TNFR1 dAb was identical to the optimal concentration determined previously. Reactions were typically set up in 100 μl volumes containing 50 microliters of a 2× concentrate of anti-TNFR1 dAb, 40 microliters of Biacore buffer and 10 microliters of neat, purified chimeric protein. Typical concentrations for the final mix were about 10-100 μM of chimeric protein and about 10-100 nM anti-TNFR1 dAb. Mixtures were allowed to equilibrate for 30 minutes at room temperature.

mouse TNFR1 = molecular target: T2, mouse TNFR1 (mouse, UniProt P25118 30-212, limits assumed); experiment: receptor binding assay
T2 construct: also called murine TNFR1; biotinylated murine TNFR1
T2 sequence: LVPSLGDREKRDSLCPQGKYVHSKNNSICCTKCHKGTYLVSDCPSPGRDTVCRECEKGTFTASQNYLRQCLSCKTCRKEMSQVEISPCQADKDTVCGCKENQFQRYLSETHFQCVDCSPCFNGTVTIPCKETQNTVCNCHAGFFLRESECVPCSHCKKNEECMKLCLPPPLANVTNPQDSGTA

[2] = molecular target: T3, mouse TNFR1 on L929 cells (mouse, UniProt P25118 30-454); experiment: cell-based or functional assay
T3 sequence (looked up): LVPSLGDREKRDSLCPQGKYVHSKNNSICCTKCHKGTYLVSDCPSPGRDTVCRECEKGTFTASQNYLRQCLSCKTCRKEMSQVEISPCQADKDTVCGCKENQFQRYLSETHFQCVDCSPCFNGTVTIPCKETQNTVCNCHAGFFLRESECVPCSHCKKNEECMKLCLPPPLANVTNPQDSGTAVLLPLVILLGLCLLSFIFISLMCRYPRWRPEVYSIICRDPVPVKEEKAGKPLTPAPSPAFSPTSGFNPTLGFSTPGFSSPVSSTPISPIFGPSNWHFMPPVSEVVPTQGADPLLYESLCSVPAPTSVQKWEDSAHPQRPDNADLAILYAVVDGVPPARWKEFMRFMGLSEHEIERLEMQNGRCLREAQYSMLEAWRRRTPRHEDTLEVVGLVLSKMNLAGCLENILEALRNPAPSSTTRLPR

hen egg lysozyme = molecular target: T4, hen egg lysozyme (hen, UniProt P00698 19-147); experiment: selection from a dAb library
T4 construct: also called HEL

[3] = molecular target: T3, mouse TNFR1 on L929 cells; experiment: cell-based or functional assay; remark: listed apart in the source

T4 sequence (P00698 19-147): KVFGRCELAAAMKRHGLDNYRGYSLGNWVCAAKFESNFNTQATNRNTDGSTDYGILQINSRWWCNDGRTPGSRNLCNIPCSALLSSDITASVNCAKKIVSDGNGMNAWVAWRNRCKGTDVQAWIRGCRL

binding result [1]: binds
B1: TAR2h-131-8 (other)
chain: EVQLLESGGGLIQPGGSLRLSCAASGFTFAHETMVWVRQAPGKGLEWVSHIDRVGQDTYYADSVKGRFTISRDNSKNTLYLQMNSLRAEDTAVYYCAKLPKRGPWFDYRGQGTLVTVSS
notes: anti-human TNFR1 dAb

binding result [1]: binds
B2: TAR2h-35-4 (other)
chain: EVQLLESGGGLVQPGGSLRLSCAASGFTFDAYNMFWFRQAPGKGPEWVSAIGPSGRETYYADSVKGRFTITRDNSKNTLYLQMNSLRAEDTAVYYCAKRYPDFDYWGQGTLVTVSS
notes: anti-human TNFR1 dAb

binding result [1]: binds
B4: TAR2h-15-8 (other)
chain: EVRLLESGGGLVQPGGSLRLSCVASGFTFGKSTMTWVRQAPGKGLEWVSHISDDGNSTYYADSVKGRFTISRDNSKNTLYLQMNSLRAEDTAVYYCAKVPILAPRNLFDYWGQGTLVTVSS
notes: anti-human TNFR1 dAb

binding result (hen egg lysozyme): binds
B6: HEL4 (other)
VH: EVQLLESGGGLVQPGGSLRLSCAASGFRISDEDMGWVRQAPGKGLEWVSSIYGPSGSTYYADSVKGRFTISRDNSKNTLYLQMNSLRAEDTAVYYCASALEPLSEPLGFWGQGTLVTVSS
notes: VH dAb

Continued, binder first:

B3: TAR2m-19 (other)
chain: EVQLLESGGGLVQPGGSLRLSCAASGFTFRKYDMHWVRQAPGKGLEWVSTISPSGRRTYYADSVKGRFTISRDNSKNTLYLQMNSLRAEDTAVYYCAENLDQVLSFDYWGQGTLVTVSS
notes: anti-mouse TNFR1 dAb
IC50 (mouse TNFR1): 2000 nM | L929 Cell Assay, Activity (IC50) [2]: 10000 nM

B5: TAR2m-20 (other)
chain: EVQLLESGGGLVQPGGSLRLSCAASGFTFGSYSMSWVRQAPGKGLEWVSGIDNGGHSTYYADSVKGRFTISRDNSKNTLYLQMNSLRAEDTAVYYCAKRSSGLPFPFDYWGQGTLVTVSS
notes: anti-mouse TNFR1 dAb
IC50 (mouse TNFR1): 150 nM

B7: TAR2m-21-43 (other)
chain: EVQLLESGGGLVQPGGSLRLSCAASGFTFTRYSMGWLRQAPGKGLEWVSRIDSYGRGTYDADSVKGRFTISRDNSKNTLYLQMNSLRAEDTAVYYCAKISQFGSNAFDYWGQGTLVTVSS
L929 Cell Assay, Activity (IC50) [2]: 6 nM

B8: TAR2m-21-10 (other)
chain: B7 chain with D60Y
L929 Cell Assay, Activity (IC50) [2]: 30 nM

B9: TAR2m-21-17 (other)
chain: B7 chain with L37V, D60Y, L115V
L929 Cell Assay, Activity (IC50) [2]: 300 nM

B10: TAR2m-21-48 (other)
chain: B7 chain with V12I, A61T, K76R
L929 Cell Assay, Activity (IC50) [2]: 6 nM

B11: TAR2m-21-06 (other)
chain: B7 chain with L37I, D60Y
L929 Cell Assay, Activity (IC50) [2]: 100 nM

B12: TAR2m21-23 dimer (other)
VH: EVQLLESGGGLVQPGGSLRLSCAASGFTFNRYSMGWLRQAPGKGLEWVSRIDSYGRGTYYEDPVKGRFSISRDNSKNTLYLQMNSLRAEDTAVYYCAKISQFGSNAFDYWGQGTQVTVSSC
fold decrease in ND50 of the dimer against the monomer [3]: ~10 fold
